Columns and labels:
Experiment in all cases: SEC; TSK-Gel G2000SWXL 7.8 x 300 mm column, Waters Alliance HPLC, detection at 220 nm; lyophilizate dissolved in water for injection and diluted, measured directly; peaks assigned as aggregates, tetramer and monomer
P00805 = tested on: P00805
[1] = biological target: Spectrila (recombinant E. coli-derived L-asparaginase) (E. coli), P00805
[2] = biological target: Onconase (E. coli-derived L-asparaginase preparation from India) (E. coli), P00805

Onconase (E. coli-derived L-asparaginase preparation from India)
percent tetramer (SEC peak area) (P00805): 82.7%[*]

Spectrila (recombinant E. coli-derived L-asparaginase)
percent tetramer (SEC peak area) (P00805): 99.4%

B1: Spectrila (recombinant E. coli-derived L-asparaginase), P00805 23-348 (enzyme)
chain: LPNITILATGGTIAGGGDSATKSNYTVGKVGVENLVNAVPQLKDIANVKGEQVVNIGSQDMNDDVWLTLAKKINTDCDKTDGFVITHGTDTMEETAYFLDLTVKCDKPVVMVGAMRPSTSMSADGPFNLYNAVVTAADKASANRGVLVVMNDTVLDGRDVTKTNTTDVATFKSVNYGPLGYIHNGKIDYQRTPARKHTSDTPFDVSKLNELPKVGIVYNYANASDLPAKALVDAGYDGIVSAGVGNGNLYKTVFDTLATAAKTGTAVVRSSRVPTGATTQDAEVDDAKYGFVASGTLNPQKARVLLQLALTQTKDPQQIQQIFNQY
modifications: not checked
stoichiometry N [1]: 4

B2: Onconase (E. coli-derived L-asparaginase preparation from India), P00805 23-348 (enzyme)
chain: LPNITILATGGTIAGGGDSATKSNYTVGKVGVENLVNAVPQLKDIANVKGEQVVNIGSQDMNDDVWLTLAKKINTDCDKTDGFVITHGTDTMEETAYFLDLTVKCDKPVVMVGAMRPSTSMSADGPFNLYNAVVTAADKASANRGVLVVMNDTVLDGRDVTKTNTTDVATFKSVNYGPLGYIHNGKIDYQRTPARKHTSDTPFDVSKLNELPKVGIVYNYANASDLPAKALVDAGYDGIVSAGVGNGNLYKTVFDTLATAAKTGTAVVRSSRVPTGATTQDAEVDDAKYGFVASGTLNPQKARVLLQLALTQTKDPQQIQQIFNQY
modifications: not checked
stoichiometry N [2]: 4

From paper PMC10270636
